T1: annexin V protein
T1 chain: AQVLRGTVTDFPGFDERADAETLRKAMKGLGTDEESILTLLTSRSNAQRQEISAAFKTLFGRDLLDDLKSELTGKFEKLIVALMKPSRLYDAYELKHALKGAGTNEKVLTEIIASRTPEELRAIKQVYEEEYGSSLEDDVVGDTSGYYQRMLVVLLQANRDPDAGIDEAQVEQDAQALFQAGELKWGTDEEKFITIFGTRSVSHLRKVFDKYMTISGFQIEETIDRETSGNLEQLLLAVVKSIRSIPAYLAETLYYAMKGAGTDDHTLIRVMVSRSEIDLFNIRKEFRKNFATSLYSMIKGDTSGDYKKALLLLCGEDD

B1: recombinant full-length delta PKC (protein)
chain: MAPFLRISFNSYELGSLQVEDEASQPFCAVKMKEALSTERGKTLVQKKPTMYPEWKTTFDAHIYEGRVIQIVLMRAAEDPVSEVTVGVSVLAERCKKNNGKAEFWLDLQPQAKVLMCVQYFLEDGDCKQSMRSEEEAKFPTMNRRGAIKQAKIHYIKNHEFIATFFGQPTFCSVCKEFVWQKQGYKCRQCNAAIHKKCIDKIIGRCTGTATNSRDTIFQKERFNIDMPHRFKVYNYMSPTFCDHCGSLLWGLVKQGLKCEDCGMNVHHKCREKVANLCGINQKLLAEALNQVTQRSSRKLDTTESVGIYQGFEKKPEVSGSDILDNNGTYGKIWEGSTRCTLENFTFQKVLGKGSFGKVLLAELKGKDKYFAIKCLKKDVVLIDDDVECTMVEKRVLALAWESPFLTHLICTFQTKDHLFFVMEFLNGGDLMFHIQDKGRFELYRATFYAAEIICGLQFLHSKGIIYRDLKLDNVMLDRDGHIKIADFGMCKENIFGEGRASTFCGTPDYIAPEILQGLKYSFSVDWWSFGVLLYEMLIGQSPFHGDDEDELFESIRVDTPHYPRWITKESKDIMEKLFERDPDKRLGVTGNIRIHPFFKTINWSLLEKRKVEPPFKPKVKSPSDYSNFDPEFLNEKPQLSFSDKNLIDSMDQEAFHGFSFVNPKFEQFLDI
B2: purified full-length epsilon PKC (protein)
chain: MVVFNGLLKIKICEAVSLKPTAWSLRHAVGPRPQTFLLDPYIALNVDDSRIGQTATKQKTNSPAWHDEFVTDVCNGRKIELAVFHDAPIGYDDFVANCTIQFEELLQNGSRHFEDWIDLEPEGRVYVIIDLSGSSGEAPKDNEERVFRERMRPRKRQGAVRRRVHQVNGHKFMATYLRQPTYCSHCRDFIWGVIGKQGYQCQVCTCVVHKRCHELIITKCAGLKKQETPDQVGSQRFSVNMPHKFGIHNYKVPTFCDHCGSLLWGLLRQGLQCKVCKMNVHRRCETNVAPNCGVDRIAKVLADLGVTPDKITNSGQRRKKLIAGAESPQPASGSSPSEEDRSKSAPTSPCDQEIKELENNIRKALSFDNRGEEHRAASSPDGQLMSPGENGEVRQGQAKRLGLDEFNFIKVLGKGSFGKVMLAELKGKDEVYAVKVLKKDVILQDDDVDCTMTEKRILALARKHPYLTQLYCCFQTKDRLFFVMEYVNGGDLMFQIQRSRKFDEPRSRFYAAEVTSALMFLHQHGVIYRDLKLDNILLDAEGHCKLADFGMCKEGILNGVTTTTFCGTPDYIAPEILQELEYGPSVDWWALGVLMYEMMAGQPPFEADNEDDLFESILHDDVLYPVWLSKEAVSILKAFMTKNPHKRLGCVASQNGEDAIKQHPFFKEIDWVLLEQKKIKPPFKPRIKTKRDVNNFDQDFTREEPVLTLVDEAIVKQINQEEFKGFSYFGEDLMP

Molecular target: T1, annexin V protein

| Protein | histone phosphorylation in an in vitro kinase reaction (SDS-PAGE, autoradiography) |
| --- | --- |
| B1 | The addition of annexin V to delta PKC in the presence of PS/DAG (Lane 3) increases the catalytic activity of delta PKC |
| B2 | annexin V does not increase the activity of epsilon PKC |
